From paper PMC2955050
Non-standard residues stand in square brackets, D forms with d. No end group written: not given here. pY = N[C@@H](Cc1ccc(OP(=O)(O)O)cc1)C(=O)O

Each binder was assayed against recombinant DLAR catalytic domain (Drosophila).

Binder	Kcat/Km of dephosphorylation of the peptide by DLAR (malachite green phosphatase assay) [sec^-1M^-1]
CDDS[pY]FGNKC (cysteine pairing not given here) [Myospheroid peptide CDDS(pY)FGNKC]	143000
VIGD[pY]VCRLCK (cysteine pairing not given here) [Nervous Fingers peptide VIGD(pY)VCRLCK]	196000
TAEPD[pY]GALYE [Cuticle peptide TAEPD(pY)GALYE]	300000
RDDT[pY]TAHAG [Abelson peptide RDDT(pY)TAHAG]	180000
TRDI[pY]ETDYYRK [Insulin receptor peptide TRDI(pY)ETDYYRK]	264000
